Here are results for 39 substances from PMC13376213, “Systematic discovery of motif-based interactions of the auxiliary domains of USP family deubiquitinases” (Nature Communications, 2026).

The target of one assay is CYLD CAP-Gly1 domain, GST-tagged (UniProt Q9NQC7). Briefly: peptide SPOT array alanine scanning. The following applies: parent: est. 0; read off a plot.
On to “RBM25_(558-573) peptide (from UniProt P49756) A560 (replacement residue not printed)”, for which the other: signal change (%) was -25%.

For “RBM25_(558-573) peptide (from UniProt P49756) A569 (replacement residue not printed)”, the other: signal change (%) is -60%.

Another assay deals with CYLD CAP-Gly2 domain, GST-tagged (UniProt Q9NQC7). Briefly: peptide SPOT array alanine scanning. The following applies: parent: est. 0; read off a plot.
For FBXO46_(168-183) peptide Q181A, the other: signal change (%) came out at 0%.

As to FBXO46_(168-183) peptide D168A, the other: signal change (%) was 150%.

For the substance FBXO46_(168-183) peptide V179A, the other: signal change (%) is -80%.

With FBXO46_(168-183) peptide V172A, the other: signal change (%) was -75%.

In the case of FBXO46_(168-183) peptide L170A, the other: signal change (%) is -70%.

On to FBXO46_(168-183) peptide E174A, for which the other: signal change (%) is -80%.

Turning to FBXO46_(168-183) peptide S171A, the other: signal change (%) is -70%.

With “FBXO46_(168-183) peptide A183 (replacement residue not printed)”, the other: signal change (%) is -55%.

Take FBXO46_(168-183) peptide R182A: the other: signal change (%) was -85%.

In the case of FBXO46_(168-183) peptide L169A, the other: signal change (%) is -70%.

Turning to “FBXO46_(168-183) peptide A173 (replacement residue not printed)”, the other: signal change (%) is -75%.

Consider FBXO46_(168-183) peptide M175A, for which the other: signal change (%) was -90%.

For the substance “FBXO46_(168-183) peptide A177 (replacement residue not printed)”, the other: signal change (%) is -80%.

FBXO46_(168-183) peptide L178A: the other: signal change (%) is -65%.

As for FBXO46_(168-183) peptide V176A, the other: signal change (%) is -85%.

FBXO46_(168-183) peptide E180A: the other: signal change (%) is -75%.

A further assay has as its target USP22 zf-UBP domain, tag cleaved (for FP) (human) (UniProt Q9UPT9). Briefly: fluorescence polarisation; saturation or displacement not stated for this experiment; 50 mM phosphate buffer pH 7.4, room temperature.
Details: not given
For the substance “ATXN7_(84-105) peptide (from UniProt O15265 84-105)”, the Kd worked out at 58 µM.

For a further assay, the target named is FITC-APBA2 327-338 peptide (human). Briefly: fluorescence polarisation; saturation: serial dilution of the protein domain, 10 nM FITC-labelled peptide; 50 mM phosphate buffer pH 7.4 with DTT; room temperature; three technical replicates; quadratic fit.
Details: not given
In the case of “USP20 zf-UBP domain (from UniProt Q9Y2K6 1-914) (domain or fragment)”, the Kd came out at 2.91 µM.

“USP20 zf-UBP domain E55K/D59R (from UniProt Q9Y2K6 1-914) (domain or fragment)” returned a Kd of 388 µM.

In turn, “USP33 zf-UBP domain (from UniProt Q8TEY7 1-942) (domain or fragment)” showed a Kd of 8.69 µM.

The target in another assay is FITC-ATXN7L1 36-57 peptide (human). The assay is described as above.
Details: not given
As for “USP22 zf-UBP domain (from UniProt Q9UPT9 1-525) (domain or fragment)”, the Kd is 1000 nM.

Another assay addresses FITC-GPR137B 348-362 peptide (human). Described as above.
Details: not given
The substance “USP20 DUSP2 domain N805A (from UniProt Q9Y2K6 1-914) (domain or fragment)” registered a Kd of 140 µM.

Substance “USP20 DUSP2 domain (from UniProt Q9Y2K6 1-914) (domain or fragment)” had a Kd of 5.14 µM.

In turn, “USP20 DUSP2 domain K833E/K835E (from UniProt Q9Y2K6 1-914) (domain or fragment)” displayed a Kd of 293 µM.

A further assay has as its target FITC-HIF1A 568-581 peptide (human). The description is as above.
Details: not given
In the case of “USP33 DUSP2 domain K863E/K865E (from UniProt Q8TEY7 1-942) (domain or fragment)”, the Kd was determined as 319 µM.

“USP33 DUSP2 domain N835A (from UniProt Q8TEY7 1-942) (domain or fragment)” returned a Kd of 353 µM.

On to “USP33 DUSP2 domain (from UniProt Q8TEY7 1-942) (domain or fragment)”, for which the Kd worked out at 31.3 µM.

The target in a further assay is FITC-ORAI1 48-63 peptide (human). Described as above.
Details: not given
In the case of “USP11 DUSP-UBL tandem domain (from UniProt P51784 1-963) (domain or fragment)”, the Kd turned out to be 294 µM.

The target in another assay is USP20 DUSP2 domain, tag cleaved (for FP) (human). Briefly: fluorescence polarisation; displacement: unlabeled peptide titrated into the domain (at two-fold the KD of the FITC-labeled peptide) with 10 nM FITC-labeled peptide; 50 mM phosphate buffer pH 7.4, DTT, room temperature; estimated KD.
Details: not given
Turning to HIF1A peptide hydroxylated at P564, the Kd is 26 µM.

For “HIF1A_(564-581) peptide, wild type, unlabeled (from UniProt Q16665 564-581)”, the Kd was 19 µM.

On to “HIF1A_(564-581) peptide D571K (from UniProt Q16665 564-581)”, for which the Kd is 85 µM.

Turning to “HIF1A_(564-581) peptide L574A (from UniProt Q16665 564-581)”, the Kd is 89 µM.

The target in a further assay is USP33 DUSP2 domain, tag cleaved (for FP) (human) (UniProt Q8TEY7). Described as above.
Details: not given
In the case of “HIF1A_(564-581) peptide F572A (from UniProt Q16665 564-581)”, the Kd was > 900 µM.

For HIF1A peptide hydroxylated at P564, the Kd is 7 µM.

On to “HIF1A_(564-581) peptide, wild type, unlabeled (from UniProt Q16665 564-581)”, for which the Kd is 1.5 µM.

As for “HIF1A_(564-581) peptide D571K (from UniProt Q16665 564-581)”, the Kd is 145 µM.

For “HIF1A_(564-581) peptide L574A (from UniProt Q16665 564-581)”, the Kd is > 200 µM.

The target in another assay is USP33 zf-UBP domain, tag cleaved (for FP) (human) (UniProt Q8TEY7). The description is as above.
Details: not given
In the case of “APBA2_(327-338) peptide N334A (from UniProt Q99767 327-338)”, the Kd is 112 µM.

For “APBA2_(327-338) peptide R330A (from UniProt Q99767 327-338)”, the Kd was > 500 µM.

“APBA2_(327-338) peptide, wild type, unlabeled”: the Kd was < 8 µM.

A further assay has as its target USP20 DUSP2 domain (human) (UniProt Q9Y2K6). Briefly: fluorescence polarisation; displacement: serial dilution of the unlabelled peptide against the domain (at two-fold the KD of the FITC-labelled peptide) in complex with 10 nM FITC-labelled peptide; 50 mM phosphate buffer pH 7.4; room temperature; three technical replicates; sigmoidal dose-response fit.
Details: not given
In the case of HIF1A 564-581 F572A peptide, the Kd came to 589 µM.

Another assay concerns the target USP33 DUSP2 domain (human) (UniProt Q8TEY7). The assay is described as above.
Details: not given
Turning to HIF1A 564-581 F572A peptide, the Kd turned out to be 930 µM.
